T1: cynomolgus PSMA extracellular domain (PSMW1), 6His and Avi tag (cynomolgus, UniProt Q04609 44-750 (human entry), biotinylated in bead-based selections and the ELISA screen)
T1 construct: Cloned along with a 6His and Avi tag; also called cynomolgus monkey PSMA; pan 230
T1 chain: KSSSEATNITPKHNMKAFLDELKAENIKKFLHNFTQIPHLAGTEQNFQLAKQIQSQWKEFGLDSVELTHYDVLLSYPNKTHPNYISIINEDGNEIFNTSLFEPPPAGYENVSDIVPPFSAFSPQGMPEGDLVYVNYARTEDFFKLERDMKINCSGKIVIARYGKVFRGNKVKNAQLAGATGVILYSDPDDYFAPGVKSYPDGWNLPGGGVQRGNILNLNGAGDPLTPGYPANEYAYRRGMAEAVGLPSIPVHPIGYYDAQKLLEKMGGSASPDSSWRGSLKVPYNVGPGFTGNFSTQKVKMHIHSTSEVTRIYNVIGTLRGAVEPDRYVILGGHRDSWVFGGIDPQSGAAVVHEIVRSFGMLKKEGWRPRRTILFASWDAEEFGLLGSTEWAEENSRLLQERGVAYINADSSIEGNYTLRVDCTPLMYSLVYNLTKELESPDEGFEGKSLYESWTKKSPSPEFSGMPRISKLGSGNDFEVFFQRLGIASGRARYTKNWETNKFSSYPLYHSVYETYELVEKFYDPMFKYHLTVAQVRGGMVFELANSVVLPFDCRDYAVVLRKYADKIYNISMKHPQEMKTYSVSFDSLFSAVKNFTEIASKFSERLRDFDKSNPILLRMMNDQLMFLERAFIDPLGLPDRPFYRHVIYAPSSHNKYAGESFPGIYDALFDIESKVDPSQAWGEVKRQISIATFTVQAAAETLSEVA

T2: chimpanzee PSMA extracellular domain (PSMW8), 6His and Avi tag (chimpanzee, UniProt Q04609 44-750 (human entry), biotinylated in bead-based selections and the ELISA screen)
T2 construct: Cloned along with a 6His and Avi tag; Buffer with ZnCl2 to stabilise PSMA dimerisation; also called pan 229
T2 chain: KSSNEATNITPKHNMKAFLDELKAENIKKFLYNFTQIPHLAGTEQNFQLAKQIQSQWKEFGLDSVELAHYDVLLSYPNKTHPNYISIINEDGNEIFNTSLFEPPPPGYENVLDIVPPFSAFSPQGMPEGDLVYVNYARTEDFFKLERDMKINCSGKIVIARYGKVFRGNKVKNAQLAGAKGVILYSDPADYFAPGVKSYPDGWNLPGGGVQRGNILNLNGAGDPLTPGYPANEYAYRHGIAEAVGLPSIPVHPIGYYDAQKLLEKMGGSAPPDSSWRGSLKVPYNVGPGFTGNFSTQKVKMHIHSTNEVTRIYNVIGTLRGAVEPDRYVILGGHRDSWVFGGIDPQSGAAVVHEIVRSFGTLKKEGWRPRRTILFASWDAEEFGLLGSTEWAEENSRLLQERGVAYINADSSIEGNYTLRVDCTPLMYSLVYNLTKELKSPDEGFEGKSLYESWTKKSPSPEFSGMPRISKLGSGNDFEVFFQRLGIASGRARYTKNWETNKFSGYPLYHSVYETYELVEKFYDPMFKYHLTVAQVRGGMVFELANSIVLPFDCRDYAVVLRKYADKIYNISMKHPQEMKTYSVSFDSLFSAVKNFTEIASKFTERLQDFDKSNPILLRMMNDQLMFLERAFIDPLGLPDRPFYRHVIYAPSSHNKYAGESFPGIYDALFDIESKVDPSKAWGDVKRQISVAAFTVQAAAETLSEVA

B1: P234CR9_H01 (designed binder)
chain: LPAPKNLVVSRVTEDSARLSWEWWVIPGDFDSFLIQYQESEKVGEAIVLTVPGSERSYDLTGLKPGTEYTVSIYGVVNSGQWNDTSNPLSAIFTT
notes: not shown: C-terminal poly-histidine tag
B2: P258AR6P1070_A05 (designed binder)
chain: LPAPKNLVVSRVTEDSARLSWTIDEQRDWFDSFLIQYQESEKVGEAIVLTVPGSERSYDLTGLKPGTEYTVSIYGVYHVYRSNPLSAIFTT
notes: as for B1
B3: P258AR6P1071_F04 (designed binder)
chain: LPAPKNLVVSRVTEDSARLSWVIDEQRDWFDSFLIQYQESEKVGEAIVLTVPGSERSYDLTGLKPGTEYTVSIYGVYHVYRSNPLSAIFTT
notes: as for B1
B4: P258AR6P1071_D02 (designed binder)
chain: LPAPKNLVVSRVTEDSARLSWAIDEQRDWFESFLIQYQESEKVGEAIVLTVPGSERSYDLTGLKPGTEYTVSIYGVYHVYRSNPLSAIFTT
notes: as for B1
B5: P258AR6P1070_F09 (designed binder)
chain: LPAPKNLVVSRVTEDSARLSWTIDEQRDWFESFLIQYQESEKVGEAIVLTVPGSERSYDLTGLKPGTEYTVSIYGVYHVYRSNPLSAIFTT
notes: as for B1
B6: P258AR6P1071_G03 (designed binder)
chain: LPAPKNLVVSRVTEDSARLSWDIDEQRDWFDSFLIQYQESEKVGEAIVLTVPGSERSYDLTGLKPGTEYTVSIYGVYHVYRSNPLSAIFTT
notes: as for B1
B7: P234CR9_A7 (designed binder)
chain: LPAPKNLVVSRVTEDSARLSWGEQFTIFDSFLIQYQESEKVGEAIVLTVPGSERSYDLTGLKPGTEYTVSIYGASGYEWFHAFGSSNPLSAIFTT
notes: also called P234CR9_A07; not shown: C-terminal poly-histidine tag
B8: CD3B154 (antibody, human IgG1, V domains shown)
VH: EVQLLESGGGLVQPGGSLRLSCAASGFTFNTYAMNWVRQAPGKGLEWVARIRSKYNNYATYYADSVKGRFTISRDNSKNTLYLQMNSLRAEDTAVYYCVKHGNFGNSYVSWFAYWGQGTLVTVSS
VL: QTVVTQEPSLTVSPGGTVTLTCRSSTGAVTTSNYANWVQQKPGQAPRGLIGGTNKRAPGTPARFSGSLLGGKAALTLSGVQPEDEAEYYCALWYSNLWVFGGGTKLTVL
notes: Humanized SP34 variant; human IgG1 constant region with L234A, L235A, F405L; human lambda constant region; also called CDB154
B9: CD3B152 (antibody, human IgG1, V domains shown)
VH: EVQLLESGGGLVQPGGSLRLSCAASGFTFNTYAMNWVRQAPGKGLEWVARIRSKYNNYATYYADSVKGRFTISRDNSKNTLYLQMNSLRAEDTAVYYCVKHGNFGNSYVSWFAYWGQGTLVTVSS
VL: QSVLTQPPSVSAAPGQKVTISCRSSTGAVTTSNYANWVQQLPGTAPKGLIGGTNKRAPGIPDRFSGSKSGTSATLGITGLQTGDEADYYCALWYSNLWVFGGGTKLTVL
notes: Humanized SP34 variant; human IgG1 constant region with L234A, L235A, F405L; human lambda constant region; also called CDB152
B10: CD3B144 (antibody, human IgG1, V domains shown)
VH: EVQLVESGGGLVQPGGSLRLSCAASGFTFNTYAMNWVRQAPGKGLEWVARIRSKYNNYATYYAASVKGRFTISRDDSKNSLYLQMNSLKTEDTAVYYCARHGNFGNSYVSWFAYWGQGTLVTVSS
VL: QSVLTQPPSVSAAPGQKVTISCRSSTGAVTTSNYANWVQQLPGTAPKGLIGGTNKRAPGIPDRFSGSKSGTSATLGITGLQTGDEADYYCALWYSNLWVFGGGTKLTVL
notes: Humanized SP34 variant; human IgG1 constant region with L234A, L235A, F405L; human lambda constant region; also called CDB144
B11: P233FR9P1001_B5-5 (designed binder)
chain: LPAPKNLVVSRVTEDSARLSWTAPDAAFDSFTIGYWEWDDDGEAIVLTVPGSERSYDLTGLKPGTEYPVYIAGVKGGQWSFPLSAIFTT
notes: as for B1
B12: P233FR9P1001_H3-1 (designed binder)
chain: LPAPKNLVVSRVTEDSARLSWTAPDAAFDSFPIGYWEWDDDGEAIVLTVPGSERSYDLTGLKPGTEYHVYIAGVKGGQWSFPLSAIFTT
notes: as for B1
B13: P233FR9P1001_D9 (designed binder)
chain: LPAPKNLVVSRVTEDSARLSWTAPDAAFDSFPIGYWEWDDDGEAIVLTVPGSERSYDLTGLKPGTEYWVYIAGVKGGQWSFPLSAIFTT
notes: as for B1
B14: P229CR5P819_H11 (designed binder)
chain: LPAPKNLVVSRVTEDSARLSWDIDEQRDWFDSFLIQYQESEKVGEAIVLTVPGSERSYDLTGLKPGTEYTVSIYGVYHVYRSSNPLSAIFTT
notes: In the cytotoxicity assays it was conjugated to vc-MMAF (cysteine-maleimide chemistry or sortase reaction); also called P229CR9P819-H11; not shown: C-terminal poly-histidine tag

How the values were obtained:
[1] = target: T3, human PSMA on tumor cells (LNCaP, MDA-PCA-2B, VCAP, 22Rv1) (human, UniProt Q04609 1-750); assay: cell-based or functional assay
T3 sequence (Q04609 whole entry): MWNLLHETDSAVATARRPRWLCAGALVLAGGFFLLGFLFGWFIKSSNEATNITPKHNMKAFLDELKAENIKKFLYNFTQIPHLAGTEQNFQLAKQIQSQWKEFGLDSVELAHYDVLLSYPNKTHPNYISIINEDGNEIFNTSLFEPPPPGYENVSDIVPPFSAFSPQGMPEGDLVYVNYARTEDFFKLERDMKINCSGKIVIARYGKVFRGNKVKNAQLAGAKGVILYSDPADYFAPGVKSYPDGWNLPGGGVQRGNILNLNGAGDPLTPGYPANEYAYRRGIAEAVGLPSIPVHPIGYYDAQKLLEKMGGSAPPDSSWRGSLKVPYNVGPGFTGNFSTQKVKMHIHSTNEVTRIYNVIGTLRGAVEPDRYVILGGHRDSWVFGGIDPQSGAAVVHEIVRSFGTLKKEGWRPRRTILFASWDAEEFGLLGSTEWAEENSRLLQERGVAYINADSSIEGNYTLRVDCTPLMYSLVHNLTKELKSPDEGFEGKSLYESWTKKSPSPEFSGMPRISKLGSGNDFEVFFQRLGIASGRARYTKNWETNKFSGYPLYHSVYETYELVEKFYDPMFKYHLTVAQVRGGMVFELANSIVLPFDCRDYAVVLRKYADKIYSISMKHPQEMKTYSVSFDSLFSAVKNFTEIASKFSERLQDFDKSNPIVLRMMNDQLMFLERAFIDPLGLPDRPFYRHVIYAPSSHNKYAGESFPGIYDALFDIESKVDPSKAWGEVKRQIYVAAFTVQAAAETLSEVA

[2] = target: T3, human PSMA on tumor cells (LNCaP, …); assay: cell-based or functional assay; remark: listed apart in the source
[3] = target: T1, cynomolgus PSMA extracellular domain …; assay: hit from CIS-display panning and ELISA screen on PSMA of this species (column Antigen species)
[4] = target: T4, cynomolgus CD3E on primary cynomolgus CD4+ T cells (cynomolgus, UniProt Q95LI5 22-198); assay: flow cytometry on primary cynomolgus CD4+ T cells
T4 construct: whole, on cells; On the cells CD3E stands in the CD3/T cell receptor complex
T4 sequence (Q95LI5 22-198): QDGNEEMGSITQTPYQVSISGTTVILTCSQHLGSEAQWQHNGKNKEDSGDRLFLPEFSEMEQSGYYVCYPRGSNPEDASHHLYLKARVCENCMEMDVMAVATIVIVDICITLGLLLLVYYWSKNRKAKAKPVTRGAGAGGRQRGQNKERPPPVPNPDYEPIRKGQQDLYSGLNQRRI
Description: (§1) The resulting panel of anti-CD3 antibodies was tested for binding against cell-surface CD3E on primary human T cells. To do this, binding of antibodies from expression supernatants was visualized using a polyclonal anti-human secondary antibody and analyzed by flow cytometry. Briefly, binding of anti-CD3 antibodies to cell-surface CD3E was assessed by flow cytometry using primary Human T lymphocytes purified by negative selection (Biological Specialty, Colmar, USA). Expression supernatants or purified antibodies were normalized to 10 μg/ml in media or FACS buffer (BD BioSciences), respectively. 2×10⁵ cells were aliquoted into wells of a 96 well round-bottomed plate (CoStar) for labeling. Antibodies in expression supernatant were added to cells and incubated for 45 min at 4° C. Following centrifugation at 1300 rpm for 3 min and removal of supernatant, 50 μL of anti-human IgG (H+L) Alexa Fluor 647 secondary antibody (Life technologies Inc.) was incubated with the cells at a final concentration of 10 μg/mL for 30 min at 4° C. away from direct light. Following washing and resuspension in 30 μL FACs buffer (BD BioSciences). Sample collection was performed on an Intellicyt HTFC system using ForeCyt software. Viable single cells were gated prior to analysis of binding using the green or red fixable live/dead dyes (Life Technologies Inc.) and forward/side scatter area and height parameters, respectively. Graphs were generated in GraphPad Prism version 5 using mean fluorescence intensity values.
Binding analysis of the anti-CD3 hits to primary cynomolgusCD4+ T cells was then tested in order to assess the retention of cross-reactivity. Purified CD4+ T cells from the peripheral blood of cynomolgus monkeys (Zen Bio, Triangle Research Park, USA were used). Assay protocols were similar to those described above. […] This included the strong binders CD3B150, CD3B151 and CD3B154, in which binding was reduced, and several weak binders where binding could no longer be detected over background.

[5] = target: T5, cell-surface CD3E on primary human T cells (human, UniProt P07766 23-207); assay: flow cytometry on primary human T cells, anti-human IgG Alexa Fluor 647 secondary
T5 construct: whole, on cells; On the cells CD3E stands in the CD3/T cell receptor complex; also called human CD3
T5 sequence (P07766 23-207): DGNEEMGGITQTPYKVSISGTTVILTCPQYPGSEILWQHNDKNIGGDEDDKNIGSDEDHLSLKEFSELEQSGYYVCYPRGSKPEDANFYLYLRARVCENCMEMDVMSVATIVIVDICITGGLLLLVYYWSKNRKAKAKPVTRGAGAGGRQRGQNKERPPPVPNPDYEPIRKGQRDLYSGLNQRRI
Description: as §1
Two in-house phage-derived antibodies with the same Fc region as the therapeutic antibodies were used as controls: G11 (HC SEQ ID NO:176, LC SEQ ID NO:177), a non-cyno cross-reactive, agonistic antibody was used as a positive control and CD3B94 (HC-SEQ ID NO:178, LC—SEQ ID NO:179) a non-binder/non-agonistic antibody was used to assess non-specific binding. The commercial SP34 antibody was not used as a comparator in this assay since it is a mouse antibody and the use of a different secondary detection reagent would have prohibited direct comparison with the variants tested.

[6] = target: T2, chimpanzee PSMA extracellular domain …; assay: hit from CIS-display panning and ELISA screen on PSMA of this species (column Antigen species)

Row | Binder | LNCaP IC50 (nM), cytotoxicity of the FN3 domain-vcMMAF conjugate (CellTiter-Glo) [1] [nM] | binding result [3] | also measured
1 | B1 | 22.6 | binds | LNCaP cells IC50 (nM), cytotoxicity of FN3 domain-drug conjugate [2]: 22.6 nM; MDA-PCA-2B cells IC50 (nM), cytotoxicity of FN3 domain-drug conjugate [2]: 151 nM; VCAP cells IC50 (nM), cytotoxicity of FN3 domain-drug conjugate [2]: 401 nM
2 | B2 | 4.6 | binds | 
3 | B3 | 5.4 | binds | 
4 | B4 | 0.8 | binds | 
5 | B5 | 0.9 | binds | 
6 | B6 | 5.8 | binds | 
7 | B7 | 8.8 | binds | 
8 | B8 |  |  | binding result [4]: binds; binding result [5]: binds
9 | B9 |  |  | binding result [5]: no binding
10 | B10 |  |  | binding result [5]: no binding
11 | B11 | 0.5 |  | binding result [6]: binds
12 | B12 | 0.4 |  | LNCaP cells IC50 (nM), cytotoxicity of FN3 domain-drug conjugate [2]: 0.4 nM; MDA-PCA-2B cells IC50 (nM), cytotoxicity of FN3 domain-drug conjugate [2]: 4.6 nM; VCAP cells IC50 (nM), cytotoxicity of FN3 domain-drug conjugate [2]: 15.2 nM; binding result [6]: binds
13 | B13 | 1.4 |  | binding result [6]: binds
14 | B14 | 20.7 |  | LNCaP cells IC50 (nM), cytotoxicity of FN3 domain-drug conjugate [2]: 9.3 nM; MDA-PCA-2B cells IC50 (nM), cytotoxicity of FN3 domain-drug conjugate [2]: 107 nM; VCAP cells IC50 (nM), cytotoxicity of FN3 domain-drug conjugate [2]: 231 nM; binding result [6]: binds

Reference: patent US20160347840A1 (Janssen / Centocor, published 2016)
